The test system of one data set is O=CCc1ccccc1. Put plainly: purified protein. To be noted: 5 mM NAD+, 100 mM Tris-HCl pH 8.0, 100 mM KCl, 25 °C.
Data set [1] has as its system NC(=O)c1ccc[n+]([C@@H]2O[C@H](COP(=O)(O)OP(=O)(O)OC[C@H]3O[C@@H](n4cnc5c(N)ncnc54)[C@H](O)[C@@H]3O)[C@@H](O)[C@H]2O)c1. Kind of data set: purified protein. To be noted: 1 mM PAAld, 100 mM Tris-HCl pH 8.0, 100 mM KCl, 25 °C, varied: cofactor.

One substance from PMC11291249, “Investigating the biosynthesis and roles of the auxin phenylacetic acid during Pseudomonas syringae-Arabidopsis thaliana pathogenesis” (Frontiers in Plant Science, 2024) can be followed below.

One may read the Km as the concentration of substrate that gives half-maximal velocity. By kcat is commonly meant the maximal rate divided by the concentration of active sites. A word on the kcat/Km: it is the second-order rate constant that governs catalysis at low substrate concentration. Consider “AldA (Pseudomonas syringae pv. tomato str. DC3000)”, for which, in the data set with O=CCc1ccccc1, the Michaelis-Menten constant (Km) was determined as 645 ± 113 µM, the kcat is 18.7 ± 1.3 s⁻¹ and the kcat/Km worked out at 29000 M⁻¹ s⁻¹. Also, in data set [1], the Km was 11.2 ± 1.2 µM, the kcat was 1.4 ± 0.0183 s⁻¹ and the kcat/Km is 125000 M⁻¹ s⁻¹.
